Measurements from paper PMC11661312, “The identification of XPR1 as a voltage- and phosphate-activated phosphate-permeable ion channel” (Research Square, 2024).

Target: the molecule itself
Assay: cryo-EM structure; purified hXPR1 at 10 to 20 mg/mL in GDN/LMNG/CHS detergent mixture; apo: 20 mM Tris pH 7.4, 150 mM NaCl (C1 symmetry); also with 25 mM sodium phosphate, 150 mM NaCl, 1 mM phytic acid (InsP6) pH 7.4 (C2 symmetry imposed)

B1: human Xenotropic and Polytropic retrovirus Receptor 1 (hXPR1) (natural protein, UniProt Q9UBH6 1-696, looked up)
chain: MKFAEHLSAHITPEWRKQYIQYEAFKDMLYSAQDQAPSVEVTDEDTVKRYFAKFEEKFFQTCEKELAKINTFYSEKLAEAQRRFATLQNELQSSLDAQKESTGVTTLRQRRKPVFHLSHEERVQHRNIKDLKLAFSEFYLSLILLQNYQNLNFTGFRKILKKHDKILETSRGADWRVAHVEVAPFYTCKKINQLISETEAVVTNELEDGDRQKAMKRLRVPPLGAAQPAPAWTTFRVGLFCGIFIVLNITLVLAAVFKLETDRSIWPLIRIYRGGFLLIEFLFLLGINTYGWRQAGVNHVLIFELNPRSNLSHQHLFEIAGFLGILWCLSLLACFFAPISVIPTYVYPLALYGFMVFFLINPTKTFYYKSRFWLLKLLFRVFTAPFHKVGFADFWLADQLNSLSVILMDLEYMICFYSLELKWDESKGLLPNNSEESGICHKYTYGVRAIVQCIPAWLRFIQCLRRYRDTKRAFPHLVNAGKYSTTFFMVTFAALYSTHKERGHSDTMVFFYLWIVFYIISSCYTLIWDLKMDWGLFDKNAGENTFLREEIVYPQKAYYYCAIIEDVILRFAWTIQISITSTTLLPHSGDIIATVFAPLEVFRRFVWNFFRLENEHLNNCGEFRAVRDISVAPLNADDQTLLEQMMDQDDGVRNRQKNRSWKYNQSISLRRPRLASQSKARDTKVLIEDTDDEANT
notes: Xenotropic and Polytropic retrovirus Receptor 1 (XPR1), human, Uniprot Q9UBH6, full length; cDNA synthesized with a C-terminal Strep-tag II; Homodimer in the detergent mixture (GDN/LMNG/CHS) by cryo-EM; also called SLC53a1; apo-hXPR1
B1 was tested, and the “stoichiometry N” value was 2.
